Data: paper PMC8368100, “Structural basis for ALK2/BMPR2 receptor complex signaling through kinase domain oligomerization” (Nature Communications, 2021)
Changes are numbered by the printed parent chain. Names may count otherwise. One block for each binder: values may come before it.

Target: T1, BMPR2 kinase domain (BMPR2^KD, residues 189-529) (human, UniProt Q13873 189-529)
T1 construct: BMPR2, type II BMP receptor, kinase domain, residues 189-529; TEV site between His tag and kinase domain; also called BMP receptor type II; source: BL21 E. coli, purified (Ni-NTA, TEV cleavage, SEC, Mono-Q); not shown: His tag, N-terminal, cleaved
T1 sequence (looked up): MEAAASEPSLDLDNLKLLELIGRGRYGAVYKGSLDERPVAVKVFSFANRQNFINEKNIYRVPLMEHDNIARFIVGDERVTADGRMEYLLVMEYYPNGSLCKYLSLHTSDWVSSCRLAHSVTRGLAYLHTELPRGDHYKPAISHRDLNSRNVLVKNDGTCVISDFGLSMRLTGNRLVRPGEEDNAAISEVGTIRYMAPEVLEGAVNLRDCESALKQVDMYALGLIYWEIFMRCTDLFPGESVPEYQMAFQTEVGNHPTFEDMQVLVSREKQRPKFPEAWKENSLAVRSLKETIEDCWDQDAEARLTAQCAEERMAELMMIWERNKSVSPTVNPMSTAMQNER
Experiment: SEC; Superdex 200 Increase 10/300 GL; kinase domains alone or as a stoichiometric mixture; also run in buffers with increasing NaCl
Conditions: both partners purified

- binding result: binds
B1: ALK2 kinase domain (ALK2^KD, residues 201-499) (domain or fragment, human, UniProt Q04771 201-499, looked up)
chain: QRTVARQITLLECVGKGRYGEVWRGSWQGENVAVKIFSSRDEKSWFRETELYNTVMLRHENILGFIASDMTSRHSSTQLWLITHYHEMGSLYDYLQLTTLDTVSCLRIVLSIASGLAHLHIEIFGTQGKPAIAHRDLKSKNILVKKNGQCCIADLGLAVMHSQSTNQLDVGNNPRVGTKRYMAPEVLDETIQVDCFDSYKRVDIWAFGLVLWEVARRMVSNGIVEDYKPPFYDVVPNDPSFEDMRKVVCVDQQRPNIPNRWFSDPTLTSLAKLMKECWYQNPSARLTALRIKKTLTKID
notes: ALK2 (ACVR1), type I BMP receptor, kinase domain without the GS domain, residues 201-499; TEV site between His tag and kinase domain; also called ACVR1; ActRIA; source: SF9 insect cells, purified (Ni-NTA, TEV cleavage, SEC); not shown: His tag, N-terminal, cleaved

- binding result: binds
B2: ALK2^KD-K492A (ALK2 kinase domain K492A) (domain or fragment, human, UniProt Q04771 201-499, looked up)
chain: B1 chain with K292A
notes: ALK2 (ACVR1) kinase domain, residues 201-499, K492A; source: SF9 insect cells, purified (Ni-NTA, TEV cleavage, SEC); not shown: His tag, N-terminal, cleaved
